# T1: cPPR-Telo1 (synthetic construct)
# T1 chain: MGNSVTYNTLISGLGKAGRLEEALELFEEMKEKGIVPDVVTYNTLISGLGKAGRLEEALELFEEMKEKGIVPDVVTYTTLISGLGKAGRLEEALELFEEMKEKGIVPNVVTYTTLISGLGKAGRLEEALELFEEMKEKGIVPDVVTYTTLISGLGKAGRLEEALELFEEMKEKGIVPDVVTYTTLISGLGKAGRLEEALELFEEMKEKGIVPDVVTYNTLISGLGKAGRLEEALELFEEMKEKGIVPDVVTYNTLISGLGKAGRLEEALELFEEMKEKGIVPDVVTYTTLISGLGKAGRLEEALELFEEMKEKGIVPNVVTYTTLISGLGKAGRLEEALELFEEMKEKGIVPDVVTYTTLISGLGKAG
# B1: telomeric ssDNA target 10-mer (ssDNA)
# DNA: TTAGGGTTAG
# Biological target: T1, cPPR-Telo1
# Experiment: structure; co-crystal structure 2.0 A, PDB 5ORQ; protein/DNA 1:2; 100 mM sodium acetate pH 4.6, 20 mM CaCl2, 22% MPD
# Conditions: tags: GST and His tags (pETM30, E. coli)
# Experimental: Crystals of cPPR-Telo1 were grown at 23° C. by the sitting drop vapour diffusion method by mixing 1 μl protein (5 mg/ml) with an equal volume of reservoir solution (100 mM sodium acetate pH 4.6, 20 mM calcium chloride, and 40% MPD). In addition, cPPR-Telo1 was incubated with target ssDNA oligonucleotide (TTAGGGTTAG) at a protein/DNA molar ratio of 1:2 for 30 min at 4° C. and crystallized in 100 mM sodium acetate pH 4.6, 20 mM calcium chloride, and 22% MPD. For both cPPR-Telo1 and cPPR-Telo1/ssDNA a single-wavelength anomalous dispersion dataset was collected at the K-edge of selenium at beam line ID30A-3 (ESRF, Grenoble, France). […] Acta Crystallogr D Biol Crystallogr 66, 213-21 (2010) was used as a starting model for manual building in COOT (Emsley, P. & Cowtan, K. Coot: model-building tools for molecular graphics. Acta Crystallogr D Biol Crystallogr 60, 2126-32 (2004) interspersed with refinement in Buster (version 2.10.3) (Smart, O. S. et al. Exploiting structure similarity in refinement: automated NCS and target-structure restraints in BUSTER. Acta Crystallogr D Biol Crystallogr 68, 368-80 (2012), which rendered a final model (Table 1) that had no Ramachandran outliers as assessed by MOLPROBITY (Lovell, S. C. et al. Structure validation by Calpha geometry: phi,psi and Cbeta deviation. […]
binder,measurement,value
B1,binding result,binds

# Source: patent US20230287060, “PROTEINS AND THEIR USE FOR NUCLEOTIDE BINDING” (The University of Western Australia, published 2023)
